{"source": "paper PMC8017708", "binders": {"B1": {"name": "recombinant UVR8 (wild-type) purified from Sf9 insect cells, Q9FN03 1-440 (natural protein)", "chain": "MAEDMAADEVTAPPRKVLIISAGASHSVALLSGDIVCSWGRGEDGQLGHGDAEDRPSPTQLSALDGHQIVSVTCGADHTVAYSQSGMEVYSWGWGDFGRLGHGNSSDLFTPLPIKALHGIRIKQIACGDSHCLAVTMEGEVQSWGRNQNGQLGLGDTEDSLVPQKIQAFEGIRIKMVAAGAEHTAAVTEDGDLYGWGWGRYGNLGLGDRTDRLVPERVTSTGGEKMSMVACGWRHTISVSYSGALYTYGWSKYGQLGHGDLEDHLIPHKLEALSNSFISQISGGWRHTMALTSDGKLYGWGWNKFGQVGVGNNLDQCSPVQVRFPDDQKVVQVSCGWRHTLAVTERNNVFAWGRGTNGQLGIGESVDRNFPKIIEALSVDGASGQHIESSNIDPSSGKSWVSPAERYAVVPDETGLTDGSSKGNGGDISVPQTDVKRVRI"}, "B2": {"name": "recombinant UVR8^W285A purified from Sf9 insect cells, Q9FN03 1-440 (natural protein)", "chain": "B1 chain with W285A"}, "B3": {"name": "UVR8^W285A expressed in Arabidopsis, Q9FN03 1-440 (natural protein)", "chain": "B1 chain with W285A"}}, "conditions_in_all_cases": "remark: other sources report otherwise", "key": {"[1]": {"biological_target": "T1, recombinant UVR8 (wild-type) purified from Sf9 insect cells (Arabidopsis thaliana), Q9FN03", "T1 chain": "B1 chain", "assay": "SEC"}, "[2]": {"biological_target": "T2, recombinant UVR8^W285A purified from Sf9 insect cells (Arabidopsis thaliana), Q9FN03", "T2 chain": "B1 chain with W285A", "assay": "SEC"}, "[3]": {"biological_target": "T3, UVR8^W285A expressed in Arabidopsis (Arabidopsis thaliana), Q9FN03", "T3 chain": "B1 chain with W285A", "assay": "cross-linking"}}, "note": "Where a chain is given by its changes, count along the chain named. In names and notes the source's numbering stands.", "data": [{"binder": "B1", "values": [{"measurement": "stoichiometry N", "setting": "[1]", "value": 2}]}, {"binder": "B2", "values": [{"measurement": "stoichiometry N", "setting": "[2]", "value": 2}]}, {"binder": "B3", "values": [{"measurement": "stoichiometry N", "setting": "[3]", "value": 2}]}]}
